# Data reported in patent US20100260668A1 (published 2010).
# Target: T1, DLL4 (DLL4 ECD/His tag, R&D Systems 1506-D4-050) (UniProt Q9NR61 27-529)
# T1 construct: extracellular domain; not shown: His tag
# Assay: Direct bind ELISA on DLL4; DLL4 domain C-term., HC long, LC long
row,Binder,EC50 [nM]
1,"DVD472 (VEGF/DLL4 DVD-Ig) (bispecific antibody, human IgG1, HC linker long, LC linker long; also called DVD472H; DVD472L) VH: EVQLVESGGGLVQPGGSLRLSCAASGFTISDYWIHWVRQAPGKGLEWVAGITPAGGYTYYADSVKGRFTISADTSKNTAYLQMNSLRAEDTAVYYCARFVFFLPYAMDYWGQGTLVTVSSASTKGPSVFPLAPEVQLVESGGGLVQPGGSLRLSCAASGFTFTDNWISWVRQAPGKGLEWVGYISPNSGFTYYADSVKGRFTISADTSKNTAYLQMNSLRAEDTAVYYCARDNFGGYFDYWGQGTLVTVSS VL: DIQMTQSPSSLSASVGDRVTITCRASQDVSTAVAWYQQKPGKAPKLLIYSASFLYSGVPSRFSGSGSGTDFTLTISSLQPEDFATYYCQQSYTTPPTFGQGTKVEIKRTVAAPSVFIFPPDIQMTQSPSSLSASVGDRVTITCRASQDVSTAVAWYQQKPGKAPKLLIYSASFLYSGVPSRFSGSGSGTDFTLTISSLQPEDFATTYYCQQSYTGTVTFGQGTKVEIKR",2.78
2,"DVD520 (VEGF/DLL4 DVD-Ig) (bispecific antibody, human IgG1, HC linker long, LC linker long; also called DVD520H; DVD520L) VH: EVQLVESGGGLVQPGGSLRLSCAASGFTISDYWIHWVRQAPGKGLEWVAGITPAGGYTYYADSVKGRFTISADTSKNTAYLQMNSLRAEDTAVYYCARFVFFLPYAMDYWGQGTLVTVSSASTKGPSVFPLAPEVQLQQSGPELEKPGASVKISCKASGYSFTGYNMNWVKQSNGKSLEWIGNIDPYFGGTNYNQKFKGKATLTVDKSSSTAYMQLKSLTSEDSAVYYCARNYDYDGGCFDYWGQGTTLTVSS VL: DIQMTQSPSSLSASVGDRVTITCRASQDVSTAVAWYQQKPGKAPKLLIYSASFLYSGVPSRFSGSGSGTDFTLTISSLQPEDFATYYCQQSYTTPPTFGQGTKVEIKRTVAAPSVFIFPPQAVVTQESALTTSPGETVTLTCRSSTGAVTTSNYANWVQEKPDHLFTGLIGGTNNRAPGVPARFSGSLIGDKAALTITGAQTEDEAIYFCALWYSNHWVFGGGTKLTVLG",17.3
3,"DVD450 (VEGF/DLL4 DVD-Ig) (bispecific antibody, human IgG1, HC linker long, LC linker long; also called DVD450H; DVD450L) VH: EVQLVESGGGLVQPGGSLRLSCAASGFTISDYWIHWVRQAPGKGLEWVAGITPAGGYTYYADSVKGRFTISADTSKNTAYLQMNSLRAEDTAVYYCARFVFFLPYAMDYWGQGTLVTVSSASTKGPSVFPLAPQVQLVQSGAEVKKPGASVKISCKASGYSFTAYYIHWVKQAPGQGLEWIGYISSYNGATNYNQKFKGRVTFTTDTSTSTAYMELRSLRSDDTAVYYCARDYDYDVGMDYWGQGTLVTVSS VL: DIQMTQSPSSLSASVGDRVTITCRASQDVSTAVAWYQQKPGKAPKLLIYSASFLYSGVPSRFSGSGSGTDFTLTISSLQPEDFATYYCQQSYTTPPTFGQGTKVEIKRTVAAPSVFIFPPDIVMTQSPDSLAVSLGERATISCRASESVDNYGISFMKWFQQKPGQPPKLLIYAASNQGSGVPDRFSGSGSGTDFTLTISSLQAEDVAVYYCQQSKEVPWTFGGGTKVEIKR",1.99
4,"DVD496 (VEGF/DLL4 DVD-Ig) (bispecific antibody, human IgG1, HC linker long, LC linker long; also called DVD496H; DVD496L) VH: EVQLVESGGGLVQPGGSLRLSCAASGFTISDYWIHWVRQAPGKGLEWVAGITPAGGYTYYADSVKGRFTISADTSKNTAYLQMNSLRAEDTAVYYCARFVFFLPYAMDYWGQGTLVTVSSASTKGPSVFPLAPEVQLQQSGPELVKPGASVKMSCKASGYTFTSYVINWVKQKPGQGLEWIGLINPYNDGTKYNEKFKVKATLTSDKSSSTAYMELSSLTSEDSAVYYCASYYYGSRYYFDYWGQGTTLTVSS VL: DIQMTQSPSSLSASVGDRVTITCRASQDVSTAVAWYQQKPGKAPKLLIYSASFLYSGVPSRFSGSGSGTDFTLTISSLQPEDFATYYCQQSYTTPPTFGQGTKVEIKRTVAAPSVFIFPPDIQMTQSSSYLSVSLGGRVTITCKASDHINNWLAWYQQKPGNAPRLLISGATSLETGVPSRFSGSGSGKDYTLSITSLQTEDVATYYCQQYWSIPLTFGAGTKLELKR",5.59

# Target: T1, DLL4 (DLL4 ECD/His tag, R&D Systems …)
# Assay: Direct bind ELISA on DLL4; DLL4 domain N-term., HC long, LC long
row,Binder,EC50 [nM]
1,"DVD519 (DLL4/VEGF DVD-Ig) (bispecific antibody, human IgG1, HC linker long, LC linker long; also called DVD519H; DVD519L) VH: EVQLQQSGPELEKPGASVKISCKASGYSFTGYNMNWVKQSNGKSLEWIGNIDPYFGGTNYNQKFKGKATLTVDKSSSTAYMQLKSLTSEDSAVYYCARNYDYDGGCFDYWGQGTTLTVSSASTKGPSVFPLAPEVQLVESGGGLVQPGGSLRLSCAASGFTISDYWIHWVRQAPGKGLEWVAGITPAGGYTYYADSVKGRFTISADTSKNTAYLQMNSLRAEDTAVYYCARFVFFLPYAMDYWGQGTLVTVSS VL: QAVVTQESALTTSPGETVTLTCRSSTGAVTTSNYANWVQEKPDHLFTGLIGGTNNRAPGVPARFSGSLIGDKAALTITGAQTEDEAIYFCALWYSNHWVFGGGTKLTVLGQPKAAPSVTLFPPDIQMTQSPSSLSASVGDRVTITCRASQDVSTAVAWYQQKPGKAPKLLIYSASFLYSGVPSRFSGSGSGTDFTLTISSLQPEDFATYYCQQSYTTPPTFGQGTKVEIKR",1.53
2,"DVD449 (DLL4/VEGF DVD-Ig) (bispecific antibody, human IgG1, HC linker long, LC linker long; also called DVD449H; DVD449L) VH: QVQLVQSGAEVKKPGASVKISCKASGYSFTAYYIHWVKQAPGQGLEWIGYISSYNGATNYNQKFKGRVTFTTDTSTSTAYMELRSLRSDDTAVYYCARDYDYDVGMDYWGQGTLVTVSSASTKGPSVFPLAPEVQLVESGGGLVQPGGSLRLSCAASGFTISDYWIHWVRQAPGKGLEWVAGITPAGGYTYYADSVKGRFTISADTSKNTAYLQMNSLRAEDTAVYYCARFVFFLPYAMDYWGQGTLVTVSS VL: DIVMTQSPDSLAVSLGERATISCRASESVDNYGISFMKWFQQKPGQPPKLLIYAASNQGSGVPDRFSGSGSGTDFTLTISSLQAEDVAVYYCQQSKEVPWTFGGGTKVEIKRTVAAPSVFIFPPDIQMTQSPSSLSASVGDRVTITCRASQDVSTAVAWYQQKPGKAPKLLIYSASFLYSGVPSRFSGSGSGTDFTLTISSLQPEDFATYYCQQSYTTPPTFGQGTKVEIKR",0.36
3,"DVD471 (DLL4/VEGF DVD-Ig) (bispecific antibody, human IgG1, HC linker long, LC linker long; also called DVD471H; DVD471L) VH: EVQLVESGGGLVQPGGSLRLSCAASGFTFTDNWISWVRQAPGKGLEWVGYISPNSGFTYYADSVKGRFTISADTSKNTAYLQMNSLRAEDTAVYYCARDNFGGYFDYWGQGTLVTVSSASTKGPSVFPLAPEVQLVESGGGLVQPGGSLRLSCAASGFTISDYWIHWVRQAPGKGLEWVAGITPAGGYTYYADSVKGRFTISADTSKNTAYLQMNSLRAEDTAVYYCARFVFFLPYAMDYWGQGTLVTVSS VL: DIQMTQSPSSLSASVGDRVTITCRASQDVSTAVAWYQQKPGKAPKLLIYSASFLYSGVPSRFSGSGSGTDFTLTISSLQPEDFATTYYCQQSYTGTVTFGQGTKVEIKRTVAAPSVFIFPPDIQMTQSPSSLSASVGDRVTITCRASQDVSTAVAWYQQKPGKAPKLLIYSASFLYSGVPSRFSGSGSGTDFTLTISSLQPEDFATYYCQQSYTTPPTFGQGTKVEIKR",0.89
4,"DVD495 (DLL4/VEGF DVD-Ig) (bispecific antibody, human IgG1, HC linker long, LC linker long; also called DVD495H; DVD495L) VH: EVQLQQSGPELVKPGASVKMSCKASGYTFTSYVINWVKQKPGQGLEWIGLINPYNDGTKYNEKFKVKATLTSDKSSSTAYMELSSLTSEDSAVYYCASYYYGSRYYFDYWGQGTTLTVSSASTKGPSVFPLAPEVQLVESGGGLVQPGGSLRLSCAASGFTISDYWIHWVRQAPGKGLEWVAGITPAGGYTYYADSVKGRFTISADTSKNTAYLQMNSLRAEDTAVYYCARFVFFLPYAMDYWGQGTLVTVSS VL: DIQMTQSSSYLSVSLGGRVTITCKASDHINNWLAWYQQKPGNAPRLLISGATSLETGVPSRFSGSGSGKDYTLSITSLQTEDVATYYCQQYWSIPLTFGAGTKLELKRTVAAPSVFIFPPDIQMTQSPSSLSASVGDRVTITCRASQDVSTAVAWYQQKPGKAPKLLIYSASFLYSGVPSRFSGSGSGTDFTLTISSLQPEDFATYYCQQSYTTPPTFGQGTKVEIKR",0.33

# Target: T1, DLL4 (DLL4 ECD/His tag, R&D Systems …)
# Assay: Direct bind ELISA on DLL4; DLL4 domain N-term., HC long, LC short
row,EC50 [nM],Binder
1,1,"DVD525 (DLL4/VEGF DVD-Ig) (bispecific antibody, human IgG1, HC linker long, LC linker short; also called DVD525H; DVD525L) VH: EVQLQQSGPELEKPGASVKISCKASGYSFTGYNMNWVKQSNGKSLEWIGNIDPYFGGTNYNQKFKGKATLTVDKSSSTAYMQLKSLTSEDSAVYYCARNYDYDGGCFDYWGQGTTLTVSSASTKGPSVFPLAPEVQLVESGGGLVQPGGSLRLSCAASGFTISDYWIHWVRQAPGKGLEWVAGITPAGGYTYYADSVKGRFTISADTSKNTAYLQMNSLRAEDTAVYYCARFVFFLPYAMDYWGQGTLVTVSS VL: QAVVTQESALTTSPGETVTLTCRSSTGAVTTSNYANWVQEKPDHLFTGLIGGTNNRAPGVPARFSGSLIGDKAALTITGAQTEDEAIYFCALWYSNHWVFGGGTKLTVLGQPKAAPDIQMTQSPSSLSASVGDRVTITCRASQDVSTAVAWYQQKPGKAPKLLIYSASFLYSGVPSRFSGSGSGTDFTLTISSLQPEDFATYYCQQSYTTPPTFGQGTKVEIKR"
2,0.24,"DVD455 (DLL4/VEGF DVD-Ig) (bispecific antibody, human IgG1, HC linker long, LC linker short; also called DVD455H; DVD455L) VH: QVQLVQSGAEVKKPGASVKISCKASGYSFTAYYIHWVKQAPGQGLEWIGYISSYNGATNYNQKFKGRVTFTTDTSTSTAYMELRSLRSDDTAVYYCARDYDYDVGMDYWGQGTLVTVSSASTKGPSVFPLAPEVQLVESGGGLVQPGGSLRLSCAASGFTISDYWIHWVRQAPGKGLEWVAGITPAGGYTYYADSVKGRFTISADTSKNTAYLQMNSLRAEDTAVYYCARFVFFLPYAMDYWGQGTLVTVSS VL: DIVMTQSPDSLAVSLGERATISCRASESVDNYGISFMKWFQQKPGQPPKLLIYAASNQGSGVPDRFSGSGSGTDFTLTISSLQAEDVAVYYCQQSKEVPWTFGGGTKVEIKRTVAAPDIQMTQSPSSLSASVGDRVTITCRASQDVSTAVAWYQQKPGKAPKLLIYSASFLYSGVPSRFSGSGSGTDFTLTISSLQPEDFATYYCQQSYTTPPTFGQGTKVEIKR"
3,0.69,"DVD477 (DLL4/VEGF DVD-Ig) (bispecific antibody, human IgG1, HC linker long, LC linker short; also called DVD477H; DVD477L) VH: EVQLVESGGGLVQPGGSLRLSCAASGFTFTDNWISWVRQAPGKGLEWVGYISPNSGFTYYADSVKGRFTISADTSKNTAYLQMNSLRAEDTAVYYCARDNFGGYFDYWGQGTLVTVSSASTKGPSVFPLAPEVQLVESGGGLVQPGGSLRLSCAASGFTISDYWIHWVRQAPGKGLEWVAGITPAGGYTYYADSVKGRFTISADTSKNTAYLQMNSLRAEDTAVYYCARFVFFLPYAMDYWGQGTLVTVSS VL: DIQMTQSPSSLSASVGDRVTITCRASQDVSTAVAWYQQKPGKAPKLLIYSASFLYSGVPSRFSGSGSGTDFTLTISSLQPEDFATTYYCQQSYTGTVTFGQGTKVEIKRTVAAPDIQMTQSPSSLSASVGDRVTITCRASQDVSTAVAWYQQKPGKAPKLLIYSASFLYSGVPSRFSGSGSGTDFTLTISSLQPEDFATYYCQQSYTTPPTFGQGTKVEIKR"
